From US20190135865A1 (SORBONNE UNIVERSITE, published 2019)
Non-standard residues stand in square brackets, D forms with d. No end group written: not given here. NMeR = CN[C@@H](CCCNC(=N)N)C(=O)O; Nle = CCCC[C@H](N)C(=O)O

Tests used:
CD47 [1] = molecular target: T1, CD47 (UniProt Q08722 19-323, limits assumed); experiment: Microscale thermophoresis (MST); NT-647-labelled Jurkat or MEC-1 cell membrane preparation held constant, peptide titrated; linear peptide PKT16, FIG. 5
T1 construct: whole, on cells; The assay used a labelled whole membrane preparation from Jurkat or MEC-1 cells, not purified CD47; also called CD47 receptor
T1 sequence (Q08722 19-323 limits assumed): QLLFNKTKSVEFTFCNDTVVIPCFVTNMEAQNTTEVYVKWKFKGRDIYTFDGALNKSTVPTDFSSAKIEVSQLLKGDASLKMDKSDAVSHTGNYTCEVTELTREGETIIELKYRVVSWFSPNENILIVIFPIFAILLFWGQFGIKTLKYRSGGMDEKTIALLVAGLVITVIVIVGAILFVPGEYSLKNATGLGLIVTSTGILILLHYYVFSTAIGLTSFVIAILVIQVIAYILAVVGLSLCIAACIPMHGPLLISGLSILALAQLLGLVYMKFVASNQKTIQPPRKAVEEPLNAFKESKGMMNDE
Procedure: (§1) Jurkat or Mec-1 cell membrane preparations are labeled using the Nanotemper NT-647 labeling kit as described elsewhere.xliv The labeled preparation is eluted with PBS and stored at 4° C. A stock solution of each peptide is prepared in DMSO (5 mM) and then diluted with PBS. For the peptides evaluated by MST, we have kept the concentration of the NT.115-labeled membrane constant, while the concentration of the ligand (peptide) was varied. After a short incubation the samples were loaded into MST premium glass capillaries and the MST analysis was performed using the Monolith NT.115-pico. […]
(§2) Binding affinity measurements. The binding affinities of peptides, here PKT16, PKTD1, PKTD10, PKTD10-1, PKTD10-3, PKTD10-5, PKDT10-7 and PKTD10-8 for a membrane preparation from Jurkat and/or MEC-1 cells were measured by Microscale Thermophoresis ^xlv on a Monolith NT115-pico system (Nanotemper Technologies, Munich, Germany).
(§3) Binding curve measured by MST. […] A local temperature difference ΔT leads to a local change in molecule concentration (depletion or enrichment), quantified by the Soret coefficient ST: cₕₒₜ/ccold=exP(−STΔT). […] For the peptides evaluated by MST, we have kept the concentration of the NT.115-labeled membrane constant, while the concentration of the ligand (peptide) was varied.

CD47 [2] = molecular target: T1, CD47; experiment: Microscale thermophoresis (MST); NT-647-labelled Jurkat or MEC-1 cell membrane preparation held constant, peptide titrated; cyclic peptide PKTD10, FIG. 6
Procedure: as §1, §2, §3

CD47 [3] = molecular target: T1, CD47; experiment: Microscale thermophoresis (MST); NT-647-labelled Jurkat or MEC-1 cell membrane preparation held constant, peptide titrated; cyclic peptide PKTD1, FIG. 6
Procedure: as §1, §2, §3

[dK][NMeR]FYVV[Nle]WK[dK] (also called linear PKT16 peptide) [PKT16 [(D)Lys-(N-Me)Arg-Phe-Tyr-Val-Val-Nle-Trp-Lys-(D)Lys]] was tested, and the Kd (CD47 [1]) was 1600 nM.

B1: PKTD10 (peptide)
peptide: SRFYVVMWKPPGLSVKVVNS
HELM: PEPTIDE1{S.R.F.Y.V.V.M.W.K.[dP].P.G.L.S.V.K.V.V.N.S}$PEPTIDE1,PEPTIDE1,1:R1-20:R2$$$V2.0
SMILES: CSCC[C@@H]1NC(=O)[C@H](C(C)C)NC(=O)[C@H](C(C)C)NC(=O)[C@H](Cc2ccc(O)cc2)NC(=O)[C@H](Cc2ccccc2)NC(=O)[C@H](CCCNC(=N)N)NC(=O)[C@H](CO)NC(=O)[C@H](CO)NC(=O)[C@H](CC(N)=O)NC(=O)[C@H](C(C)C)NC(=O)[C@H](C(C)C)NC(=O)[C@H](CCCCN)NC(=O)[C@H](C(C)C)NC(=O)[C@H](CO)NC(=O)[C@H](CC(C)C)NC(=O)CNC(=O)[C@@H]2CCCN2C(=O)[C@H]2CCCN2C(=O)[C@H](CCCCN)NC(=O)[C@H](Cc2c[nH]c3ccccc23)NC1=O
notes: Cyclic peptide, linear representation -S-R-F-Y-V-V-M-W-K-p-P-G-L-S-V-K-V-V-N-S-
Binder B1 has a Kd (CD47 [2]) of 49 nM.

B2: PKTD1 (peptide)
peptide: SRFYVVMWKPPGISVKVVKS
HELM: PEPTIDE1{S.R.F.Y.V.V.M.W.K.[dP].P.G.I.S.V.K.V.V.K.S}$PEPTIDE1,PEPTIDE1,1:R1-20:R2$$$V2.0
SMILES: CC[C@H](C)[C@@H]1NC(=O)CNC(=O)[C@@H]2CCCN2C(=O)[C@H]2CCCN2C(=O)[C@H](CCCCN)NC(=O)[C@H](Cc2c[nH]c3ccccc23)NC(=O)[C@H](CCSC)NC(=O)[C@H](C(C)C)NC(=O)[C@H](C(C)C)NC(=O)[C@H](Cc2ccc(O)cc2)NC(=O)[C@H](Cc2ccccc2)NC(=O)[C@H](CCCNC(=N)N)NC(=O)[C@H](CO)NC(=O)[C@H](CO)NC(=O)[C@H](CCCCN)NC(=O)[C@H](C(C)C)NC(=O)[C@H](C(C)C)NC(=O)[C@H](CCCCN)NC(=O)[C@H](C(C)C)NC(=O)[C@H](CO)NC1=O
notes: Cyclic peptide, linear representation -S-R-F-Y-V-V-M-W-K-p-P-G-I-S-V-K-V-V-K-S-
With B2 the Kd (CD47 [3]) was 1.9 nM.
